Results taken from patent US20200155643.

Molecular target: Recombinant human protein C inhibitor (PCI, SERPINA5) (UniProt P05154)
Sequence (P05154 20-406): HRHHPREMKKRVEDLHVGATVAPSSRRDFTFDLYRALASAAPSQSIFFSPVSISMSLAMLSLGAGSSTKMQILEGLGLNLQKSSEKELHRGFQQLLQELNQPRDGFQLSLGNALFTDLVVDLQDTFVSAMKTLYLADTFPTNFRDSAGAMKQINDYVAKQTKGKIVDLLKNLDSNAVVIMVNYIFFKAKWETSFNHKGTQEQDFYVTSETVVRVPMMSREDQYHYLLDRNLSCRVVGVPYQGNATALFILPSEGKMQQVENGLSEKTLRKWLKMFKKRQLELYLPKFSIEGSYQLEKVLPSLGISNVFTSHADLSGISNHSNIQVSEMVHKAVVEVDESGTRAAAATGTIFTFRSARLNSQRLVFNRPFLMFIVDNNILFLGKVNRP

Substance	cleavage of PCI (anti-PCI immunoblot)
Recombinant human hepsin (R&D Systems 4776-SE-10)	resulted in the appearance of cleaved forms of PCI
Recombinant mouse testisin (R&D Systems 6820-SE-10)	PCI is a substrate for testisin ... testisin cleaves PCI at a second site
